Consider seven molecules from US20260070940A1 (Hoffmann-La Roche, published 2026).

What is called EC50 is the concentration at which the effect is half-maximal. In general, IC50 refers to the concentration at which inhibition is half-maximal. High values mean weaker potency in that assay, low ones greater potency in that assay. Broadly, the t½ is how long it takes for the measured level to halve. For orientation: % Inhibition means the percentage by which the read-out fell short of the control. By koff is commonly meant the first-order rate constant of dissociation. Usually Ki stands for a dissociation constant, usually derived from enzyme kinetics or from competition with a known ligand.

Assay [1] addresses T1, murine LAG3-Fc antigen (R&D Systems, 3328-L3-050) (murine, UniProt Q61790 24-442).
T1 construct: Bought
T1 sequence (looked up): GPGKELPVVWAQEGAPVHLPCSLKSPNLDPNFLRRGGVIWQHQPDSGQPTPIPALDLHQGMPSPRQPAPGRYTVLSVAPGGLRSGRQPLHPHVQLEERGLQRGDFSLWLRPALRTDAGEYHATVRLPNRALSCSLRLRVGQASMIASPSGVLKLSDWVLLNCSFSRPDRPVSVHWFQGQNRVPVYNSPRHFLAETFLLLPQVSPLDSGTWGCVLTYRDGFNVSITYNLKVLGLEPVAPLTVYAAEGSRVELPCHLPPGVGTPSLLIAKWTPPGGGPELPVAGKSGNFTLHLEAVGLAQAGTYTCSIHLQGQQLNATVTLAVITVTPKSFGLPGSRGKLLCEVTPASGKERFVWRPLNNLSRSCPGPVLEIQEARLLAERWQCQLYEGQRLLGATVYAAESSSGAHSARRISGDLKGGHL
In words: ELISA, murine LAG3-Fc. (In general: In an ELISA, binding on a coated surface is turned into a signal by an enzyme label.)

Assay [2] deals with T2, human LAG3 on recombinant CHO cells (human, UniProt P18627 23-525).
T2 construct: whole, on cells; also called Lag3 cells
T2 sequence (looked up): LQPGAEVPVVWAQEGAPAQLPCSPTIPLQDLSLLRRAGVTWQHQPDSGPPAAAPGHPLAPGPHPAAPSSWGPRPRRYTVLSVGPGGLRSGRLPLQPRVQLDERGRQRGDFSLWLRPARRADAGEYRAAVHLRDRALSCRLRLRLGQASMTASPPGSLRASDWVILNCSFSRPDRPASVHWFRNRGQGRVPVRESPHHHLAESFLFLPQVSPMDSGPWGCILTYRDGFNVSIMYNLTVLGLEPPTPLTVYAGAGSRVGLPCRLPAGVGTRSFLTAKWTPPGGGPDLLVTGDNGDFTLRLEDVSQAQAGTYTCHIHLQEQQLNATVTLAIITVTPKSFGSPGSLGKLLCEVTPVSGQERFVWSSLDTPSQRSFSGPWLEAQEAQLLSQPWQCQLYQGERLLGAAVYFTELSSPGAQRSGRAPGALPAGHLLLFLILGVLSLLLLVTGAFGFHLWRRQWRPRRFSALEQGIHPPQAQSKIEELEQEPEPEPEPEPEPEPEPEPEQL
Briefly: cell ELISA, CHO-LAG3.

Assay [3] addresses T3, recombinant human LAG3 Fc Chimera Protein (R&D Systems, 2319-L3) (human, UniProt P18627 23-450).
T3 construct: Bought
T3 sequence (looked up): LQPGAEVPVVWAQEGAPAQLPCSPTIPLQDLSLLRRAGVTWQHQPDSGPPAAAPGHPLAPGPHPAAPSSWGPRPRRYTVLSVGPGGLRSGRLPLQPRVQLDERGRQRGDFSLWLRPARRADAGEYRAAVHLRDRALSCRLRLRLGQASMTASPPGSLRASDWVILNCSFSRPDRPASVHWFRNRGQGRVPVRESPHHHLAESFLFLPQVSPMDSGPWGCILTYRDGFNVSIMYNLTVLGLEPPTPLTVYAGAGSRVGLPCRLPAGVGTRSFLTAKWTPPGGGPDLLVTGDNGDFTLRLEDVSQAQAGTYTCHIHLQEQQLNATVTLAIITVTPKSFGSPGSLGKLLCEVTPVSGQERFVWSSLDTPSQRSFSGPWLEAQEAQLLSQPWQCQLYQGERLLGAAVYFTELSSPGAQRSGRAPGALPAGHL
Briefly: ELISA, coated LAG3 Fc.

In assay [4] the target is T4, soluble human Lag3-IgG1-Fc with biotinylated C-terminal Avi-tag (human, biotin on the Avi-tag).
T4 construct: Lag3 ECD, IEGRMD linker, IgG1 Fc, Avi-tag; also called LAG3-Fc-avi; biotinylated LAG3-Fc
Briefly: A375 MHCII competition ELISA.

The target in assay [5] is T3, recombinant human LAG3 Fc Chimera …. In words: SPR, captured aVH-Fc, LAG3 Fc analyte.
In assay [6] the target is T4, soluble human Lag3-IgG1-Fc with …. Briefly: A375 MHCII competition ELISA, 3 ug/ml.
Assay [7] concerns the target T3, recombinant human LAG3 Fc Chimera …. In words: SPR, captured aVH-Fc, LAG3 Fc analyte; poor fit. A general note: Surface plasmon resonance follows binding to a sensor surface in real time, without labels.
The target of assay [8] is T5, full-length human CD28 with N-terminal SNAP tag on transfected Hek293 cells (human, UniProt P10747 19-220, SNAP tag labelled with terbium).
T5 construct: whole, on cells; also called hu CD28-SNAP
Briefly: FRET competition, unlabelled against d2-TGN1412 on CD28-SNAP cells; 95% CI in brackets.

For assay [9], the target named is T5, full-length human CD28 with N-terminal …. In words: FRET competition on cells with terbium-labelled hu CD28-SNAP; competitor d2-labelled TGN1412 (0.15 nM), unlabelled TGN1412 IgG titrated.
Assay [10] addresses T3, recombinant human LAG3 Fc Chimera …. In words: SPR, captured antibody, LAG3 Fc analyte.
For assay [11], the target named is T6, MCSP antigen, amino acids 1553 to 2184 of matured MCSP with C-terminal avi-tag and His-tag, biotinylated (Homo sapiens (Human), UniProt Q6UVK1 1582-2213, limits assumed, biotin on the avi-tag).
T6 construct: also called recombinant MCSP
T6 sequence: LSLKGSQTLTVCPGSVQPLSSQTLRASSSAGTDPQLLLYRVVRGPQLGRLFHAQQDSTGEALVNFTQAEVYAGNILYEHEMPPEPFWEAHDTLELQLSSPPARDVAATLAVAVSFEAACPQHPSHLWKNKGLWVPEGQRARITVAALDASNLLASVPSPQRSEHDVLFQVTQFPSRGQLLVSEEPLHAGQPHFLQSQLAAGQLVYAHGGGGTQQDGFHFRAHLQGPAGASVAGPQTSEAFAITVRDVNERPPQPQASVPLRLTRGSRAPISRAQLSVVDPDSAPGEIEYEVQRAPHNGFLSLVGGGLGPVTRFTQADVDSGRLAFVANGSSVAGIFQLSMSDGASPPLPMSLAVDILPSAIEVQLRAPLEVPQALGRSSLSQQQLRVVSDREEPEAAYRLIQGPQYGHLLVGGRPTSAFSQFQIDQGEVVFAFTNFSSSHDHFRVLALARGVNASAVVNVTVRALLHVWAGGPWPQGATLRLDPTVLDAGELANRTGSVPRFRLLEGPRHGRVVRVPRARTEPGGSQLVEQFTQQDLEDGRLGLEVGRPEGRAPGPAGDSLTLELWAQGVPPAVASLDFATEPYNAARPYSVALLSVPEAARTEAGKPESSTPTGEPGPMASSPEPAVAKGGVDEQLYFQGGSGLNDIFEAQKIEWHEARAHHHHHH
Briefly: ELISA, supernatant on biotinylated antigen.

Values joined by “and” are separate entries in the source; they are usually repeats but may differ in a detail not shown here. Equal values may be shown once.

B1: P11A2 aVH-Fc, bivalent (PG-LALA) (Fc fusion)
heavy: EVQLVESGGGLVQPGGSLRLSCAASSFNIKDTYIGWVRRAPGKGTELVAEIACHEGTTRYADSVKGRFTISCDTSKNTAYLQMNSLRAEDTAVYYCANTEYDDIFDYWGQGTTVTVSSGGGGSGGGGSDKTHTCPPCPAPEAAGGPSVFLFPPKPKDTLMISRTPEVTCVVVDVSHEDPEVKFNWYVDGVEVHNAKTKPREEQYNSTYRVVSVLTVLHQDWLNGKEYKCKVSNKALGAPIEKTISKAKGQPREPQVYTLPPSRDELTKNQVSLTCLVKGFYPSDIAVEWESNGQPENNYKTTPPVLDSDGSFFLYSKLTVDKSRWQQGNVFSCSVMHEALHNHYTQKSLSLSPGK
For the molecule B1, in [1], the binding result is recorded as “no binding”. In addition, in [2], the EC50 is 0.0169 µg/mL and 0.2 nM; the OD max was 1.2. The OD max in assay [3] amounted to 1.3. The IC50 in [4] is 0.0903 µg/mL and 1.2 nM. Further, in [5], the t½ amounted to 2.4 min. In addition, the “% Inhibition” value in [6] stood at 92.4%. In addition, in assay [7], the koff worked out at 0.0048 s⁻¹.

B2: TGN1412 IgG (antibody, V domains shown)
VH: QVQLVQSGAEVKKPGASVKVSCKASGYTFTSYYIHWVRQAPGQGLEWIGCIYPGNVNTNYNEKFKDRATLTVDTSISTAYMELSRLRSDDTAVYFCTRSHYGLDWNFDVWGQGTTVTVSS
VL: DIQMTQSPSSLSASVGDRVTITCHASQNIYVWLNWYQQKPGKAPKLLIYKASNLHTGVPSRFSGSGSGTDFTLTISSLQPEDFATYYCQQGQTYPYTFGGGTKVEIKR
In the case of B2, affinity in assay [8] was put at a Ki of 0.28 nM. The “IC50 (read off the curve)” value in [9] is approximately 0.6 nM.

B3: MDX 25F7 (antibody, V domains shown)
VH: QVQLQQWGAGLLKPSETLSLTCAVYGGSFSDYYWNWIRQPPGKGLEWIGEINHNGNTNSNPSLKSRVTLSLDTSKNQFSLKLRSVTAADTAVYYCAFGYSDYEYNWFDPWGQGTLVTVSS
VL: EIVLTQSPATLSLSPGERATLSCRASQSISSYLAWYQQKPGQAPRLLIYDASNRATGIPARFSGSGSGTDFTLTISSLEPEDFAVYYCQQRSNWPLTFGQGTNLEIK
As for B3, in assay [2], the OD max stood at 2.06. In [3], the concentration for a half-maximal effect (EC50) was 0.0031 µg/mL and 0.02 nM; the OD max is 3.39. The IC50 in assay [4] was 0.127 µg/mL and 0.8 nM. For the same molecule, in [6], the “% Inhibition” value was found to be 90.4%. Moreover, in assay [10], the koff came out at 0.00039 s⁻¹ and the t½ worked out at 30 min.

B4: SEQ ID NO 61 (VHH)
VHH: EVQLVESGGGLVQPGGSLRLSCAASSFNIKDTYIGWVRRAPGKGTELVAGIYCEAGITRYADSVKGRFTISCDTSKNTAYLQMNSLRAEDTAVYYCAGKGIGNYFDYWGQGTTVTVSS
notes: also called MCSP-specific aVH
For the molecule B4, the binding result in assay [11] is “binds”.

B5: SEQ ID NO 59 (VHH)
VHH: EVQLVESGGGLVQPGGSLRLSCAASSFNIKDTYIGWVRRAPGKGTELVADIYCSEGSTRYADSVKGRFTISCDTSKNTAYLQMNSLRAEDTAVYYCAAVSDYVVFYYWGQGTTVTVSS
notes: also called MCSP-specific aVH
With B5, the binding result in [11] is reported as “binds”.

B6: 9B4 aVH-Fc, bivalent (PG-LALA) (Fc fusion)
chain: EVQLVESGGGLVQPGGSLRLSCAASGFNIKDTCIGWVRRAPGKGTELVAEICQDIGYTRYADSVKGRFTISADTSKNTAYLQMNSLRAEDTAVYYCAAVEVAEYFEYWGQGTTVTVSS
notes: not shown: linker and human IgG1 Fc (PG-LALA)
Take B6: the binding result in assay [1] is “no binding”. In assay [2], the EC50 is 0.0288 µg/mL and 0.4 nM; the OD max stood at 1.3. In addition, in assay [3], the concentration for a half-maximal effect (EC50) was 0.0194 µg/mL and 0.3 nM; the OD max came out at 1.2. In addition, the IC50 in assay [4] is 0.0762 µg/mL and 1 nM. Further, in [5], the koff was determined as 0.00019 s⁻¹ and the t½ amounted to 61.1 min. Moreover, in assay [6], the “% Inhibition” value turned out to be 95.5%.

B7: P10D1 aVH-Fc, bivalent (PG-LALA) (Fc fusion)
chain: EVQLVESGGGLVQPGGSLRLSCAASGFSIKDTCIAWVRRAPGKGTELVAEICEDIGYTRYADSVKGRFTISADTSKNTAYLQMNSLRAEDTAVYYCAAKEAGVGFDYWGQGTTVTVSS
notes: as for B6
For the molecule B7, in assay [1], the binding result is on record as “no binding”. Moreover, in assay [2], the half-maximal effective concentration (EC50) was 0.029 µg/mL and 0.4 nM; the OD max stood at 1.2. For the same molecule, in [3], the EC50 was 0.113 µg/mL and 1.5 nM; the OD max stood at 0.9. The half-maximal inhibitory concentration (IC50) in [4] was 0.0933 µg/mL and 1.2 nM. Further, in assay [5], the koff turned out to be 0.00011 s⁻¹ and the t½ is 102 min. The “% Inhibition” value in [6] came to 93.4%.
